In patent publication US20230295310A1 (ABCELLERA BIOLOGICS, published 2023):
Substitutions are numbered along the chain they refer to.

B1: GOMP001_bsAb_038 (bispecific antibody, human IgG1, kappa, L234A L235A)
heavy 1: EVQLVESGGVLVKTGGSLRLSCVASGFSFKKAWMNWVRYAPGKGLEWVGRIKRNSDGGAADYAARVKDRFTLSRDDSKNTLYLQMNSLKTEDTAVYYCTTLDSSSWYVGYYYMDVWGRGTTVTVSSASTKGPSVFPLAPSSKSTSGGTAALGCLVKDYFPEPVTVSWNSGALTSGVHTFPAVLQSSGLYSLSSVVTVPSSSLGTQTYICNVNHKPSNTKVDKKVEPKSCDKTHTCPPCPAPEAAGGPSVFLFPPKPKDTLMISRTPEVTCVVVDVSHEDPEVKFNWYVDGVEVHNAKTKPREEQYNSTYRVVSVLTVLHQDWLNGKEYKCKVSNKALPAPIEKTISKAKGQPRRPRVYTLPPSREEMTKNQVSLVCLVKGFYPSDIAVEWESNGQPENNYKTTPPVLDSDGSFFLYSVLTVDKSRWQQGNVFSCSVMHEALHNHYTQKSLSLSPG
light 1: DIHMTQSPSSVSASLGDRVTFTCRASQNINNWLAWYQRKPGDAPKLLIYTASSLQSGVPSRFSGSGSGTDFTLTISSLQPDDFATYYCQQAHSLPITFGQGTRLGIKRTVAAPSVFIFPPSDEQLKSGTASVVCLLNNFYPREAKVQWKVDNALQSGNSQESVTEQDSKDSTYSLSSTLTLSKADYEKHKVYACEVTHQGLSSPVTKSFNRGEC
heavy 2: QVQLVQSGAEVKKPGASVKVSCKASGYTFTSHWMHWVRYAPGQGLEWIGEFNPSNGRTNYNEKFKSKATMTVDTSTNTAYMELSSLRSEDTAVYYCASRDYDYDGRYFDYWGRGTLVTVSSASTKGPSVFPLAPSSKSTSGGTAALGCLVKDYFPEPVTVSWNSGALTSGVHTFPAVLQSSGLYSLSSVVTVPSSSLGTQTYICNVNHKPSNTKVDKKVEPKSCDKTHTCPPCPAPEAAGGPSVFLFPPKPKDTLMISRTPEVTCVVVDVSHEDPEVKFNWYVDGVEVHNAKTKPREEQYNSTYRVVSVLTVLHQDWLNGKEYKCKVSNKALPAPIEKTISKAKGQPRRPRVYTLPPSREEMTKNQVSLVCLVKGFYPSDIAVEWESNGQPENNYKTTPPVLDSDGSFFLYSVLTVDKSRWQQGNVFSCSVMHEALHNHYTQKSLSLSPG
light 2: DIQMTQSPSSLSASVGDRVTITCSASSSVTYMYWYQRKPGDAPKLLIYDTSNLASGVPSRFSGSGSGTDYTFTISSLQPEDIATYYCQQWSSHIFTFGQGTKVEIKRTVAAPSVFIFPPSDEQLKSGTASVVCLLNNFYPREAKVQWKVDNALQSGNSQESVTEQDSKDSTYSLSSTLTLSKADYEKHKVYACEVTHQGLSSPVTKSFNRGEC
B2: GOMP001_bsAb_039 (bispecific antibody, human IgG1, kappa, L234A L235A)
heavy 1: QVQLVQSGAEVKKPGASVKVSCKASGYTFTSHWMHWVRKAPGQGLEWIGEFNPSNGRTNYNEEFKSKATMTVDTSTNTAYMELSSLRSEDTAVYYCASRDYDYDGRYFDYWGQGTLVTVSSASTKGPSVFPLAPSSKSTSGGTAALGCLVADYFPEPVTVSWNSGALTSGVHTFPAVLQSSGLYSLSSVVTVPSSSLGTQTYICNVNHKPSNTKVDEKVEPKSCDKTHTCPPCPAPEAAGGPSVFLFPPKPKDTLMISRTPEVTCVVVDVSHEDPEVKFNWYVDGVEVHNAKTKPREEQYNSTYRVVSVLTVLHQDWLNGKEYKCKVSNKALPAPIEKTISKAKGQPREPQVYTLPPSREEMTDNQVSLTCLVKGFYPSDIAVEWESNGQPENNYKTTPPVLMSDGSFFLASKLTVDKSRWQQGNVFSCSVMHEALHNHYTQKSLSLSPG
light 1: B1 light 2 with D1R, R37D, D41K, E122K, S130R
heavy 2: B1 heavy 1 with V10G, L18H, A59T, A60T, D68G, T71I
light 2: B1 light 1 with H3Q, L15V, F21I, N28D, L46I, S53N, D81E, Y87F, G105E
B3: GOMP001_bsAb_040 (bispecific antibody, human IgG1, kappa, L234A L235A)
heavy 1: B1 heavy 1 with V10G, L18H, A59T, A60T, D68G, T71I
light 1: B1 light 1 with H3Q, L15V, F21I, N28D, L46I, S53N, D81E, Y87F, G105E
heavy 2: B1 heavy 2
light 2: B1 light 2
B4: GOMP001_bsAb_041 (bispecific antibody, human IgG1, kappa, L234A L235A)
heavy 1: B2 heavy 1
light 1: B1 light 2 with D1R, R37D, D41K, E122K, S130R
heavy 2: B1 heavy 1 with V10G, S55T, A59P, D68G, N79K
light 2: DIQMTQSPSSVSASVGDRVIITCRASQDINNWLAWYLRRPGDAPKLLIYAASSLQSGVPSRFSGSGSGTDFTLTIGSLQPEDFATYYCQQAHSLPITFGQGTRLEIQRTVAAPSVFIFPPSDEQLKSGTASVVCLLNNFYPREAKVQWKVDNALQSGNSQESVTEQDSKDSTYSLSSTLTLSKADYEKHKVYACEVTHQGLSSPVTKSFNRGEC
B5: GOMP001_bsAb_042 (bispecific antibody, human IgG1, kappa, L234A L235A)
heavy 1: B1 heavy 1 with V10G, S55T, A59P, D68G, N79K
light 1: B4 light 2
heavy 2: B1 heavy 2
light 2: B1 light 2
B6: GOMP001_bsAb_043 (bispecific antibody, human IgG1, kappa, L234A L235A)
heavy 1: B2 heavy 1
light 1: B1 light 2 with D1R, R37D, D41K, E122K, S130R
heavy 2: B1 heavy 1 with V10G, S55T, A59T, D68G, N79K, Y82F, W106Y
light 2: B4 light 2 with I20T, L37Q, R39K, A50T, Q107K

target: human EGFR, C-terminal eGFP-tagged, on CHO-K1 cells (human, UniProt P00533 25-1210); assay: cell-based or functional assay

First: B1
Second: B2
The “EC50 CHO-K1 EGFR Low (nM); T cell activation bioassay, luciferase” value (“EC50 CHO-K1 EGFR Low (nM)” below) of the first is 15-fold lower: 0.0248 nM for the first, 0.369 nM for the second.

Compared with B3, B4 is 6-fold higher in “EC50 CHO-K1 EGFR Low (nM)” value: 0.0499 nM for the first, 0.297 nM for the second.

Compared with B5, B6 is 1.6-fold higher in “EC50 CHO-K1 EGFR Low (nM)” value: 0.0439 nM for the first, 0.0706 nM for the second.

Going from B1 to B2, the “EC50 CHO-K1 EGFR Med (nM); T cell activation bioassay, luciferase” value (“EC50 CHO-K1 EGFR Med (nM)” for short) rises from 0.00489 nM to 0.0257 nM (5.3-fold).

Going from B3 to B4, the “EC50 CHO-K1 EGFR Med (nM)” value rises from 0.0038 nM to 0.022 nM (5.8-fold).

Going from B5 to B6, the “EC50 CHO-K1 EGFR Med (nM)” value rises from 0.00223 nM to 0.0122 nM (5.5-fold).
